Data reported in the supplement of paper PMC9732359.
± gives the uncertainty stated by the source.

Test: protein stability index of a GFP-peptide fusion (yeast GPS) (PSI 1-4); higher = more stable; sorted into four equal gates, so the index is relative within each strain
Procedure, shortened: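 Mid-log yeast cultures in leucine-free medium, carrying a pooled plasmid library, were sorted into four equal gates by their GFP/Cherry fluorescence ratio. Each plasmid expressed Cherry along with GFP fused upstream of a tiled 17-residue yeast protein peptide. Plasmids recovered from each gate were PCR-amplified and Illumina-sequenced, with reads assigned to strains by barcodes. The protein stability index was obtained by summing each gate's read frequency weighted by its gate number.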

## LGDMENNLEKYPFRYKT [RTT102]
doa10∆
  protein stability index: 3.44 ± 0.073
pdr5∆
  protein stability index: 3.39 ± 0.055
san1∆
  protein stability index: 3.46 ± 0.042
ubr1∆
  protein stability index: 3.43 ± 0.081

## FSVRTKDSNKDVVVEGL [RPL10]
doa10∆
  protein stability index: 2.14 ± 0.051
pdr5∆
  protein stability index: 2.32 ± 0.055
san1∆
  protein stability index: 2.13 ± 0.073
ubr1∆
  protein stability index: 2.77 ± 0.054

## PDILATDLIREKTMMTF [YCS4]
doa10∆
  protein stability index: 2.28 ± 0.078
pdr5∆
  protein stability index: 3.08 ± 0.081
san1∆
  protein stability index: 2.86 ± 0.082
ubr1∆
  protein stability index: 2.62 ± 0.056

## SKQTPQPKAPRAPKVIH [ISW2]
doa10∆
  protein stability index: 2.91 ± 0.05
pdr5∆
  protein stability index: 3.14 ± 0.054
san1∆
  protein stability index: 2.93 ± 0.041
ubr1∆
  protein stability index: 3.14 ± 0.047

## IHFREHQSELIIKQTVH [YMR129W/POM152]
doa10∆
  protein stability index: 2.46 ± 0.072
pdr5∆
  protein stability index: 2.85 ± 0.069
san1∆
  protein stability index: 2.48 ± 0.097
ubr1∆
  protein stability index: 2.21 ± 0.053

## LRVDEVQGKNLLTNFHG [RPS1A]
doa10∆
  protein stability index: 3.29 ± 0.067
pdr5∆
  protein stability index: 3.42 ± 0.055
san1∆
  protein stability index: 3.3 ± 0.047
ubr1∆
  protein stability index: 3.26 ± 0.041

## FSNVELPQCIIPSSYIK [ARP7]
doa10∆
  protein stability index: 2.38 ± 0.042
pdr5∆
  protein stability index: 2.38 ± 0.041
san1∆
  protein stability index: 2.28 ± 0.051
ubr1∆
  protein stability index: 2.45 ± 0.032

## NALHTERLHELKKLQSD [SMC1]
doa10∆
  protein stability index: 3.59 ± 0.078
pdr5∆
  protein stability index: 3.38 ± 0.12
san1∆
  protein stability index: 3.18 ± 0.095
ubr1∆
  protein stability index: 3.48 ± 0.1

## PYSKNAVEQLAGCKIDN [YDL088C/ASM4]
doa10∆
  protein stability index: 2.58 ± 0.089
pdr5∆
  protein stability index: 2.6 ± 0.089
san1∆
  protein stability index: 2.41 ± 0.092
ubr1∆
  protein stability index: 2.56 ± 0.047

## LRNKIAGYTTHLMKRIQ [RPS17A]
doa10∆
  protein stability index: 2.44 ± 0.12
pdr5∆
  protein stability index: 3.19 ± 0.13
san1∆
  protein stability index: 2.31 ± 0.12
ubr1∆
  protein stability index: 2.99 ± 0.076

## LEACIVRIMKAKRNLPH [CDC53]
doa10∆
  protein stability index: 1.5 ± 0.087
pdr5∆
  protein stability index: 1.61 ± 0.059
san1∆
  protein stability index: 1.3 ± 0.13
ubr1∆
  protein stability index: 1.21 ± 0.045

## SSLIKAGLDKGISINNM [RPO31]
doa10∆
  protein stability index: 2.65 ± 0.064
pdr5∆
  protein stability index: 2.7 ± 0.079
san1∆
  protein stability index: 2.76 ± 0.066
ubr1∆
  protein stability index: 2.95 ± 0.058

## KLVTYIVKFKQKEEGRS [YLR335W/NUP2]
doa10∆
  protein stability index: 3.1 ± 0.06
pdr5∆
  protein stability index: 3.1 ± 0.067
san1∆
  protein stability index: 3.33 ± 0.044
ubr1∆
  protein stability index: 3.34 ± 0.051

## QETQHGNITRGLAVGLA [RPN2]
doa10∆
  protein stability index: 3.08 ± 0.074
pdr5∆
  protein stability index: 2.55 ± 0.096
san1∆
  protein stability index: 2.73 ± 0.062
ubr1∆
  protein stability index: 2.88 ± 0.04

## NLVSLLIIVTRKNYMHV [YML031W/NDC1]
doa10∆
  protein stability index: 1.21 ± 0.041
pdr5∆
  protein stability index: 1.22 ± 0.039
san1∆
  protein stability index: 1.26 ± 0.11
ubr1∆
  protein stability index: 1.3 ± 0.033

## SAIDVLDPLTKDPVDFV [RPN2]
doa10∆
  protein stability index: 3.21 ± 0.088
pdr5∆
  protein stability index: 3.29 ± 0.076
san1∆
  protein stability index: 3.15 ± 0.074
ubr1∆
  protein stability index: 3.12 ± 0.096

## RSKNLIFNGETLEDALR [GRR1]
doa10∆
  protein stability index: 2.92 ± 0.093
pdr5∆
  protein stability index: 2.58 ± 0.054
san1∆
  protein stability index: 2.65 ± 0.057
ubr1∆
  protein stability index: 2.77 ± 0.07

## VCDLALRFGEGASGEER [PUP2]
doa10∆
  protein stability index: 2.75 ± 0.2
pdr5∆
  protein stability index: 3.4 ± 0.2
ubr1∆
  protein stability index: 3.1 ± 0.21

## IHFADVAHITTKSPAYP [RGR1]
doa10∆
  protein stability index: 2.42 ± 0.054
pdr5∆
  protein stability index: 2.61 ± 0.055
san1∆
  protein stability index: 2.55 ± 0.045
ubr1∆
  protein stability index: 2.56 ± 0.033

## SSNQSAPVETKKKRFEI [HRT1]
doa10∆
  protein stability index: 3.18 ± 0.065
pdr5∆
  protein stability index: 3.3 ± 0.079
san1∆
  protein stability index: 3.08 ± 0.069
ubr1∆
  protein stability index: 3.27 ± 0.07

## LLHNHLKSIESLKLENS [SMC2]
doa10∆
  protein stability index: 1.4 ± 0.1
pdr5∆
  protein stability index: 1.82 ± 0.11
san1∆
  protein stability index: 1.24 ± 0.28
ubr1∆
  protein stability index: 2.52 ± 0.21

## LQKQILTVENKLQFETD [SMC1]
doa10∆
  protein stability index: 2.6 ± 0.069
pdr5∆
  protein stability index: 2.37 ± 0.052
san1∆
  protein stability index: 2.55 ± 0.047
ubr1∆
  protein stability index: 2.9 ± 0.046

## ADEMGLGKTIQTISLLT [SNF2]
doa10∆
  protein stability index: 1.73 ± 0.092
pdr5∆
  protein stability index: 2.5 ± 0.086
san1∆
  protein stability index: 2.46 ± 0.08
ubr1∆
  protein stability index: 2.41 ± 0.075

## PETCLFVSYFGKQIKST [YML103C/NUP188]
doa10∆
  protein stability index: 2.61 ± 0.051
pdr5∆
  protein stability index: 2.45 ± 0.039
san1∆
  protein stability index: 2.27 ± 0.062
ubr1∆
  protein stability index: 2.64 ± 0.037

## IVGKKIQEFLVVIEKRR [GRR1]
doa10∆
  protein stability index: 3.23 ± 0.098
pdr5∆
  protein stability index: 2.9 ± 0.098
san1∆
  protein stability index: 3.29 ± 0.073
ubr1∆
  protein stability index: 3.12 ± 0.055

## VPFESLQGVTYPVLRKL [YIL149C/MLP2]
doa10∆
  protein stability index: 2.82 ± 0.11
pdr5∆
  protein stability index: 2.56 ± 0.075
san1∆
  protein stability index: 2.32 ± 0.12
ubr1∆
  protein stability index: 2.27 ± 0.068

## GTIKKIEQFAMRRNSKI [POP5]
doa10∆
  protein stability index: 2.79 ± 0.065
pdr5∆
  protein stability index: 2.73 ± 0.05
san1∆
  protein stability index: 2.6 ± 0.059
ubr1∆
  protein stability index: 2.69 ± 0.039

## ETSCDNYHPMNIDETSD [SMC4]
doa10∆
  protein stability index: 3.02 ± 0.064
pdr5∆
  protein stability index: 3.16 ± 0.052
san1∆
  protein stability index: 3.15 ± 0.041
ubr1∆
  protein stability index: 3.17 ± 0.051

## FIYKKVLKEKDVPAYNV [SRB8]
doa10∆
  protein stability index: 2.99 ± 0.086
pdr5∆
  protein stability index: 3.05 ± 0.062
san1∆
  protein stability index: 2.95 ± 0.058
ubr1∆
  protein stability index: 3.13 ± 0.042

## ETTTEEDSENPSDWQRN [ITC1]
doa10∆
  protein stability index: 3.31 ± 0.17
pdr5∆
  protein stability index: 3.31 ± 0.095
san1∆
  protein stability index: 3.06 ± 0.11
ubr1∆
  protein stability index: 3.38 ± 0.083

## WKYNNFLQKFEIAFHLT [YML103C/NUP188]
doa10∆
  protein stability index: 2.36 ± 0.048
pdr5∆
  protein stability index: 2.19 ± 0.032
san1∆
  protein stability index: 2.01 ± 0.052
ubr1∆
  protein stability index: 2.36 ± 0.027

## IEEHPTVVDAIDNSDEI [IRR1]
doa10∆
  protein stability index: 3.35 ± 0.13
pdr5∆
  protein stability index: 3.12 ± 0.076
san1∆
  protein stability index: 3.38 ± 0.069
ubr1∆
  protein stability index: 3.1 ± 0.06

## TPLFPIDRNSTILYLNV [IRR1]
doa10∆
  protein stability index: 2.71 ± 0.083
pdr5∆
  protein stability index: 1.87 ± 0.072
san1∆
  protein stability index: 2.93 ± 0.092
ubr1∆
  protein stability index: 2.69 ± 0.098

## GEVVYLRKQKDSSTTSS [ITC1]
doa10∆
  protein stability index: 1.79 ± 0.073
pdr5∆
  protein stability index: 1.73 ± 0.08
san1∆
  protein stability index: 1.48 ± 0.14
ubr1∆
  protein stability index: 2.23 ± 0.081

## EDAIHIALLTLKESVEG [PRE8]
doa10∆
  protein stability index: 2.94 ± 0.092
pdr5∆
  protein stability index: 2.87 ± 0.085
san1∆
  protein stability index: 2.94 ± 0.069
ubr1∆
  protein stability index: 2.92 ± 0.076

## LETILEEFRNLAALNVW [SSN2]
doa10∆
  protein stability index: 2.9 ± 0.11
pdr5∆
  protein stability index: 2.98 ± 0.1
san1∆
  protein stability index: 2.52 ± 0.11
ubr1∆
  protein stability index: 3.32 ± 0.057

## PEFAGYSKAAEPHAVSL [ASC1]
doa10∆
  protein stability index: 2.51 ± 0.073
pdr5∆
  protein stability index: 2.44 ± 0.063
san1∆
  protein stability index: 2.17 ± 0.068
ubr1∆
  protein stability index: 2.21 ± 0.047

## RGRPPKARNGLDYVRTP [SNF2]
doa10∆
  protein stability index: 1.52 ± 0.096
pdr5∆
  protein stability index: 1.67 ± 0.087
san1∆
  protein stability index: 2.41 ± 0.13
ubr1∆
  protein stability index: 3.09 ± 0.074

## ELSDSWRAHDSSIVAID [YGL100W/SEH1]
doa10∆
  protein stability index: 2.9 ± 0.084
pdr5∆
  protein stability index: 2.72 ± 0.11
san1∆
  protein stability index: 3.24 ± 0.054
ubr1∆
  protein stability index: 2.8 ± 0.08

## KRAFTKKVASANATAAE [RPL16A]
doa10∆
  protein stability index: 2.73 ± 0.068
pdr5∆
  protein stability index: 2.69 ± 0.06
san1∆
  protein stability index: 2.82 ± 0.04
ubr1∆
  protein stability index: 2.55 ± 0.037

## ELGTAVGKLFRVGVVSI [RPL30]
doa10∆
  protein stability index: 1.31 ± 0.13
pdr5∆
  protein stability index: 1.17 ± 0.1
san1∆
  protein stability index: 1.27 ± 0.23
ubr1∆
  protein stability index: 1.29 ± 0.095

## IPAGIYWYWWKNGNEYN [QCR8]
doa10∆
  protein stability index: 2.35 ± 0.076
pdr5∆
  protein stability index: 1.69 ± 0.053
san1∆
  protein stability index: 1.77 ± 0.13
ubr1∆
  protein stability index: 2.04 ± 0.089

## YLIKLLGFEVKDQALIG [SIR2]
doa10∆
  protein stability index: 1.92 ± 0.061
pdr5∆
  protein stability index: 2.08 ± 0.06
san1∆
  protein stability index: 2.1 ± 0.061
ubr1∆
  protein stability index: 2.73 ± 0.087

## KDNARIYQVPEKDLEHW [POP1]
san1∆
  protein stability index: 2.26 ± 0.23

## VDFQNDLKDILEKVVPL [BRR2]
doa10∆
  protein stability index: 3.17 ± 0.18
pdr5∆
  protein stability index: 2.88 ± 0.13
san1∆
  protein stability index: 2.9 ± 0.15
ubr1∆
  protein stability index: 2.69 ± 0.066

## SKRRITEELSITGEKLD [SMC1]
doa10∆
  protein stability index: 2.17 ± 0.08
pdr5∆
  protein stability index: 2.22 ± 0.072
san1∆
  protein stability index: 2.18 ± 0.1
ubr1∆
  protein stability index: 2.01 ± 0.078

## KSMGRKCFDDIEPHIFD [YCG1]
doa10∆
  protein stability index: 3.15 ± 0.075
pdr5∆
  protein stability index: 3.07 ± 0.084
san1∆
  protein stability index: 3.29 ± 0.046
ubr1∆
  protein stability index: 3.32 ± 0.048

## AVFKIVLQPLLPRELPK [SNU114]
doa10∆
  protein stability index: 2.05 ± 0.083
pdr5∆
  protein stability index: 1.76 ± 0.091
san1∆
  protein stability index: 2.05 ± 0.095
ubr1∆
  protein stability index: 2.18 ± 0.074

## LDDPEAVSKDPLLTKRK [DIS3]
doa10∆
  protein stability index: 2.9 ± 0.11
pdr5∆
  protein stability index: 3.44 ± 0.1
san1∆
  protein stability index: 3.34 ± 0.094
ubr1∆
  protein stability index: 3.1 ± 0.059

## GVLKPDITFFGEALPNK [SIR2]
doa10∆
  protein stability index: 3.34 ± 0.08
pdr5∆
  protein stability index: 3.19 ± 0.083
san1∆
  protein stability index: 3.16 ± 0.091
ubr1∆
  protein stability index: 3.35 ± 0.085

## VEESGEHVILGNGELYM [SNU114]
doa10∆
  protein stability index: 3.31 ± 0.08
pdr5∆
  protein stability index: 3.12 ± 0.066
san1∆
  protein stability index: 3.3 ± 0.051
ubr1∆
  protein stability index: 3.13 ± 0.057
